The text below walks through data of patent publication US8993725B2, “Notch-based fusion proteins and uses thereof” (The Trustees of Columbia University in the City of New York, priority 2004, dated 2015).

What all share (format): cell-based, Human
The subject of test [1] is Notch signaling (CBF1 promoter activity) in HUVEC. Description: VEGF-induced Notch signaling, CBF1 promoter / CSL-luciferase reporter activity in HUVEC. The following applies: for Inhibition of VEGF-induced CBF1 promoter activity: 40 MOI for each adenovirus; for Effect on VEGF-induced CBF1 promoter / CSL luciferase activity: co-infection (co-transduction) with Ad-VEGF in HUVEC. As for the experimental part: To determine VEGF-induced Notch signaling, HUVEC which were infected with adenovirus were used. HUVEC plated 1-day prior in 6 well plates at 8.0×10^5 were infected with either Ad-LacZ as control or Ad-VEGF at indicated m.o.i. in the presence or absence of Ad-N1ECD/Fc. Two days after infection, infected HUVEC were re-seeded into 24-well plate at 1.5×10^5 cell in triplicate and cultured for 24 hours, and then transfected with 12.5 ng pRL-SV40 (Promega) and 137.5 ng pGA981-6 using Effectene transfection reagent (Qiagen). Cells were harvested either 1 or 2 days post-transfection and luciferase activity was determined by using the Dual-Luciferase® Reporter Assay System (Promega).
One can measure Notch signaling function by measuring transcriptional activity of CBF1 promoter, which is activated by binding of Notch-IC to CBF1. We measured CBF1 promoter activity in HUVEC which was infected with adenovirus encoding VECF-165 at different MOI (FIG. 6). Induction of CBF1 promoter was clearly detected in Ad-VEGF-infected HUVEC, compared to Ad-LacZ-infected cells in the MOI dependent manner. […] Thus VEGF induced Notch signaling activity.

A further test deals with Ad-VEGF-infected HUVEC. Description: VEGF-induced budding (sprouting assay) of Ad-VEGF-HUVEC on collagen gel. The following applies: for Inhibition of VEGF-induced HUVEC budding: co-infection with Ad-VEGF; for Inhibition of VEGF-induced HUVEC budding / Effect of fusion protein adenovirus alone on HUVEC morphology / bud formation: collagen gel; for Effect of fusion protein adenovirus alone on HUVEC morphology / bud formation: without Ad-VEGF. On the procedure: For making collagen gels, an ice-cold solution of porcine type I collagen (Nitta gelatin, Tokyo, Japan) was mixed with 10×RPMI1640 medium and neutralization buffer at the ratio of 8:1:1. 400 μl aliquots of collagen gel were then added to 24-well plates and allowed to gel for at least 1 hour at 37° C. Following adenoviral infection (above), HUVEC was harvested and plated at 1.3×10^5 cells per well onto the top of the collagen gel in 24-well plates in 0.8 ml of EGM2 medium. HUVEC became nearly confluent 48 hours after plating. After seeding, medium was changed every 2 days for 1 week. Sprouting was observed and photographs taken after 8 days with an Olympus digital camera mounted to a microscope. For quantification of the number of sprouts, 5 fields per each well were randomly selected and sprouting was counted under microscopy in a blind manner by two investigators.
HUVEC (Human Umbilical Vein Endothelial cells) growth are dependent on VEGF (FIGS. 26A and 26B) and differentiation-related biological responses, such as sprouting, and can be evaluated at an early stage (7). At first, we examined whether adenovirally transduced VEGF induced both Notch and Notch ligand expression in HUVEC cultured with complete medium containing bFGF (FIG. 22A), as reported (5). […] Transduced-VEGF also activated Notch signaling in a dose-dependent manner by measuring CSL-luciferase reporter activity (FIG. 22B), which was transactivated with Notch signaling (8). Notch signaling was activated at a higher dosage of Ad-VEGF, compared to proliferation (FIG. 26A). […] Since Notch mutants lacking both transmembrane and cytoplasmic domains functioned as dominant negative inhibitors against Notch signaling (9), we made a Notch-based fusion protein or decoy (N1ECDFc) to inhibit Notch signaling (FIG. 22D). […] Then, we examined whether N1ECDFc inhibited activation of Notch signaling by transduced VEGF in HUVEC (FIG. 22G). […] Gerhardt et al. reported that VEGF controlled angiogenesis in the early postnatal retina by guiding filopodia extension at the tips of the vascular sprouts (10). During angiogenic sprouting, the formation of a specialized endothelial cell making filopodia projections among quiescent endothelial cells, might be one of the early events. Here we mean formation of a single endothelial cell making filopodia protrusions as budding. Budding of the primary endothelial cells is induced by cultivating them 3-dimensionally on either fibrin or collagen gel (11). In the case where Ad-VEGF-HUVEC were cultured on collagen gel with complete medium, transduced-HUVEC made filopodia extensions into the collagen gel for 5 days (FIG. 22H) and the number of buds was increased in a dose-dependent manner (FIG. 27A). […] Since both VEGF and Notch signaling induce HUVEC budding, we examined whether N1ECDFc inhibited VEGF-induced HUVEC budding (FIG. 22H-I).

In another test the test system is MT1-MMP mRNA. The test is described as follows: RT-PCR analysis of MT1-MMP expression in Ad-VEGF-HUVEC. As for the experimental part: FIGS. 24A-B show gelatin zymography analysis of MMP-9 and MMP-2 activity stimulated by VEGF in HUVEC. […] Transduced HUVEC were cultured on fibrin gel on the indicated day (i.e. D2, D4, D6, D8). Similar results were also obtained by using collagen gel, although induction of MMP-9 was stronger on fibrin gel than collagen gel (data not shown). […] HUVEC were transduced with Ad-N1ECDFc at the indicated doses and condition medium was collected from HUVEC cultured on collagen gel at day 4. FIGS. 24C-D show up-regulation of MMP-9 and MT1-MMP with Notch signaling. HUVEC were transduced with either Ad-LacZ or Ad-N1IC at 40 MOI. Numbers show PCR cycles. […] HUVEC were transduced with Ad-VEGF in the absence or presence of co-transduction of Ad-N1ECDFc at 40 MOI each. Ad-LacZ was co-transduced to make the same total amount of adenovirus at 80 MOI.
Requisition of MMPs for angiogenic sprouting has been established by synthetic MMP inhibitors (16). GM6001 is one broad inhibitor against MMPs including MMP2, MMP9 and MT1-MMP (18).

Setting [2] is: listed as Ad-Notch fusion protein.
Where [3] appears, read: listed as Ad-Notch-based fusion protein.

Entries after “also recorded” stand apart in the source; their conditions may differ.

B1: N1ECDFc: Notch-based fusion protein or decoy: extracellular domain of Notch1 containing the EGF-repeats fused to the Fc portion of an antibody (protein)
chain: ARGLRCSQPSGTCLNGGRCEVANGTEACVCSGAFVGQRCQDPSPCLSTPCKNAGTCYVVDHGGIVDYACSCPLGFSGPLCLTPLANACLANPCRNGGTCDLLTLTEYKCRCPPGWSGKSCQQADPCASNPCANGGQCLPFESSYICGCPPGFHGPTCRQDVNECSQNPGLCRHGGTCHNEIGSYRCACRATHTGPHCELPYVPCSPSPCQNGGTCRPTGDTTHECACLPGFAGQNCEENVDDCPGNNCKNGGACVDGVNTYNCRCPPEWTGQYCTEDVDECQLMPNACQNAGTCHNSHGGYNCVCVNGWTGEDCSDNIDDCASAACFQGATCHDRVASFYCECPHGRTGLLCHLNDACISNPCNEGSNCDTNPVNGKAICTCPRGYTGPACSQDVDECALGANPCEHAGKCLNTLGSFECQCLQGYTGPRCEIDVNECISNPCQNDATCLDQIGEFQCICMPGYEGVYCEINTDECASSPCLHNGRCVDKINEFLCQCPKGFSGHLCQYDVDECASTPCKNGAKCLDGPNTYTCVCTEGYTGTHCEVDIDECDPDPCHIGLCKDGVATFTCLCQPGYTGHHCETNINECHSQPCRHGGTCQDRDNYYLCLCLKGTTGPNCEINLDDCASNPCDSGTCLDKIDGYECACEPGYTGSMCNVNIDECAGSPCHNGGTCEDGIAGFTCRCPEGYHDPTCLSEVNECNSNPCIHGACRDGLNGYKCDCAPGWSGTNCDINNNECESNPCVNGGTCKDMTSGYVCTCREGFSGPNCQTNINECASNPCLNQGTCIDDVAGYKCNCPLPYTGATCEVVLAPCATSPCKNSGVCKESEDYESFSCVCPTGWQGQTCEIDINECVKSPCRHGASCQNTNGSYRCLCQAGYTGRNCESDIDDCRPNPCHNGGSCTDGVNAAFCDCLPGFQGAFCEEDINECATNPCQNGANCTDCVDSYTCTCPTGFNGIHCENNTPDCTESSCFNGGTCVDGINSFTCLCPPGFTGSYCQYDVNECDSRPCLHGGTCQDSYGTYKCTCPQGYTGLNCQNLVRWCDSAPCKNGGKCWQTNTQYHCECRSGWTGFNCDVLSVSCEVAAQKRGIDVTLLCQHGGLCVDEEDKHYCHCQAGYTGSYCEDEVDECSPNPCQNGATCTDYLGGFSCKCVAGYHGSNCSEEINECLSQPCQNGGTCIDLTNTYKCSCPRGTQGVHCEINVDDCHPPLDPASRSPKCFNNGTCVDQVGGYTCTCPPGFVGERCEGDVNECLSNPCDPRGTQNCVQRVNDFHCECRAGHTGRRCESVINGCRGKPCRNGGVCAVASNTARGFICRCPARFEGATCENDARTCGSLRCLNGGTCISGPRSPTCLCLGSFTGPECQFPASSPCVGSNPCYNQGTCEPTSESPFYRCLCPAKFNGLLCHILDYSFTDLGPG
modifications: left off: a dimerising Fc or GST
notes: Notch-based fusion protein or decoy: extracellular domain of Notch1 containing the EGF-repeats fused to the Fc portion of an antibody
As for B1, the “Inhibition of VEGF-induced CBF1 promoter activity” value is 60% in test [1] (24 hr after reporter gene transfection) and 90% in test [1] (48 hr after reporter gene transfection). Besides, the “Effect on VEGF-induced CBF1 promoter / CSL luciferase activity” value is recorded as “clearly decreased CSL luciferase activity induced by VEGF” in test [1] (listed as Ad-N1ECDFc), “clearly reduced activation of CBF1 promoter activity” in test [1] (setting [2]) and “clearly reduced activation of CBF1 promoter activity” in test [1] (setting [3]). Besides, the “MOI dependence of the inhibitory activity on VEGF-induced CBF1 promoter activity” value in test [1] (co-infection with Ad-VEGF in HUVEC) is recorded as “dependent on MOI”. Also, the “Inhibition of VEGF-induced HUVEC budding” value in the test on Ad-VEGF-infected HUVEC is listed as “clearly inhibited”; in the test with Ad-VEGF-infected HUVEC (listed as Ad-N1ECDFc) it was “clearly inhibited; also recorded: inhibition of budding”; with Ad-VEGF-infected HUVEC (listed as Notch fusion protein), “clearly inhibited; also recorded: could inhibit VEGF-induced budding”. Moreover, the “Cell number in VEGF-induced HUVEC budding assay” value with Ad-VEGF-infected HUVEC (co-transduction with Ad-VEGF) is recorded as “without affecting cell number”. For the same molecule, the “Effect of fusion protein adenovirus alone on HUVEC morphology / bud formation” value is given as “Neither Ad-LacZ or Ad-N1ECDFc-transduced HUVEC formed buds” in the test with Ad-VEGF-infected HUVEC (listed as Ad-N1ECDFc), “had less effect on morphology” in the test with Ad-VEGF-infected HUVEC (setting [2]) and “had less effect on morphology” in the test with Ad-VEGF-infected HUVEC (setting [3]). Besides, the “Expression of MT1-MMP, fusion protein adenovirus alone” value with MT1-MMP mRNA (Ad-LacZ infected HUVEC, data not shown) is on record as “did not affect expression of either MMP9 or MT1-MMP”. For the same molecule, the “VEGF-induced up-regulation of MT1-MMP mRNA” value with MT1-MMP mRNA (co-transduction with Ad-VEGF, 40 MOI each) is on record as “this induction was inhibited”.
